Measurements taken from patent publication US20190185537A1 (AstraZeneca / MedImmune, published 2019).
Numbered stars: 1 amine (or outer) side, 2 acyl side, 3 side chain; on linkers, the order of the positions; unused ones are H or OH. Side chains are listed from the residue outwards. Ends that are not written are not given here. * marks the point of attachment. γGlu = O=C(O)[C@H](CCC(=O)[*:2])N[*:1]; Palmitoyl = CCCCCCCCCCCCCCCC(=O)*

T1: human glucose-dependent insulinotropic peptide (gastric inhibitory polypeptide) receptor (human) (UniProt P48546)
T1 sequence (looked up): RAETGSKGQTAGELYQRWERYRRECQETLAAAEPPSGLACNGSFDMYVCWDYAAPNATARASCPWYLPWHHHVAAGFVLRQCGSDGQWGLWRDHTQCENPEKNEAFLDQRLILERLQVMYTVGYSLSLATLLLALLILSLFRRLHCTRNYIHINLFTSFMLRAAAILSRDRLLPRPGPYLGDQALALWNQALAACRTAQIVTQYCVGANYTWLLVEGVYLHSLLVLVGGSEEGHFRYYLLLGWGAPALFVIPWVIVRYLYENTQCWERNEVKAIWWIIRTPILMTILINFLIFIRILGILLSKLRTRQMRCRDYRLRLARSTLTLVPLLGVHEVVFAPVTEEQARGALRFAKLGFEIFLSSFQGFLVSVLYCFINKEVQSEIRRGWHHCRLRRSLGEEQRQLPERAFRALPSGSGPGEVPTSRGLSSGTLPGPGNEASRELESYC

B1: g850 (peptide)
peptide: HSQGTFTSDYSRYK([γGlu-Palmitoyl])DSRSARDFVAWLEA-NH2
modifications: N-terminus assumed
SMILES: CCCCCCCCCCCCCCCC(=O)N[C@@H](CCC(=O)NCCCC[C@H](NC(=O)[C@H](Cc1ccc(O)cc1)NC(=O)[C@H](CCCNC(=N)N)NC(=O)[C@H](CO)NC(=O)[C@H](Cc1ccc(O)cc1)NC(=O)[C@H](CC(=O)O)NC(=O)[C@H](CO)NC(=O)[C@@H](NC(=O)[C@H](Cc1ccccc1)NC(=O)[C@@H](NC(=O)CNC(=O)[C@H](CCC(N)=O)NC(=O)[C@H](CO)NC(=O)[C@@H](N)Cc1c[nH]cn1)[C@@H](C)O)[C@@H](C)O)C(=O)N[C@@H](CC(=O)O)C(=O)N[C@@H](CO)C(=O)N[C@@H](CCCNC(=N)N)C(=O)N[C@@H](CO)C(=O)N[C@@H](C)C(=O)N[C@@H](CCCNC(=N)N)C(=O)N[C@@H](CC(=O)O)C(=O)N[C@@H](Cc1ccccc1)C(=O)N[C@H](C(=O)N[C@@H](C)C(=O)N[C@@H](Cc1c[nH]c2ccccc12)C(=O)N[C@@H](CC(C)C)C(=O)N[C@@H](CCC(=O)O)C(=O)N[C@@H](C)C(N)=O)C(C)C)C(=O)O
B2: g804 (peptide)
peptide: HSQGTFTSDYSKYK([γGlu-Palmitoyl])DSRRARDFVAWLEA-NH2
modifications: N-terminus assumed
SMILES: CCCCCCCCCCCCCCCC(=O)N[C@@H](CCC(=O)NCCCC[C@H](NC(=O)[C@H](Cc1ccc(O)cc1)NC(=O)[C@H](CCCCN)NC(=O)[C@H](CO)NC(=O)[C@H](Cc1ccc(O)cc1)NC(=O)[C@H](CC(=O)O)NC(=O)[C@H](CO)NC(=O)[C@@H](NC(=O)[C@H](Cc1ccccc1)NC(=O)[C@@H](NC(=O)CNC(=O)[C@H](CCC(N)=O)NC(=O)[C@H](CO)NC(=O)[C@@H](N)Cc1c[nH]cn1)[C@@H](C)O)[C@@H](C)O)C(=O)N[C@@H](CC(=O)O)C(=O)N[C@@H](CO)C(=O)N[C@@H](CCCNC(=N)N)C(=O)N[C@@H](CCCNC(=N)N)C(=O)N[C@@H](C)C(=O)N[C@@H](CCCNC(=N)N)C(=O)N[C@@H](CC(=O)O)C(=O)N[C@@H](Cc1ccccc1)C(=O)N[C@H](C(=O)N[C@@H](C)C(=O)N[C@@H](Cc1c[nH]c2ccccc12)C(=O)N[C@@H](CC(C)C)C(=O)N[C@@H](CCC(=O)O)C(=O)N[C@@H](C)C(N)=O)C(C)C)C(=O)O
B3: g817 (peptide)
peptide: HSQGTFTSDYSKYK([γGlu-Palmitoyl])DSRAAQDFVQWLEAGG-NH2
modifications: N-terminus assumed
SMILES: CCCCCCCCCCCCCCCC(=O)N[C@@H](CCC(=O)NCCCC[C@H](NC(=O)[C@H](Cc1ccc(O)cc1)NC(=O)[C@H](CCCCN)NC(=O)[C@H](CO)NC(=O)[C@H](Cc1ccc(O)cc1)NC(=O)[C@H](CC(=O)O)NC(=O)[C@H](CO)NC(=O)[C@@H](NC(=O)[C@H](Cc1ccccc1)NC(=O)[C@@H](NC(=O)CNC(=O)[C@H](CCC(N)=O)NC(=O)[C@H](CO)NC(=O)[C@@H](N)Cc1c[nH]cn1)[C@@H](C)O)[C@@H](C)O)C(=O)N[C@@H](CC(=O)O)C(=O)N[C@@H](CO)C(=O)N[C@@H](CCCNC(=N)N)C(=O)N[C@@H](C)C(=O)N[C@@H](C)C(=O)N[C@@H](CCC(N)=O)C(=O)N[C@@H](CC(=O)O)C(=O)N[C@@H](Cc1ccccc1)C(=O)N[C@H](C(=O)N[C@@H](CCC(N)=O)C(=O)N[C@@H](Cc1c[nH]c2ccccc12)C(=O)N[C@@H](CC(C)C)C(=O)N[C@@H](CCC(=O)O)C(=O)N[C@@H](C)C(=O)NCC(=O)NCC(N)=O)C(C)C)C(=O)O
B4: g876 (peptide)
peptide: HSQGTFTSDYSEYK([γGlu-Palmitoyl])DSRRARDFVEWLEAGG-NH2
modifications: N-terminus assumed
SMILES: CCCCCCCCCCCCCCCC(=O)N[C@@H](CCC(=O)NCCCC[C@H](NC(=O)[C@H](Cc1ccc(O)cc1)NC(=O)[C@H](CCC(=O)O)NC(=O)[C@H](CO)NC(=O)[C@H](Cc1ccc(O)cc1)NC(=O)[C@H](CC(=O)O)NC(=O)[C@H](CO)NC(=O)[C@@H](NC(=O)[C@H](Cc1ccccc1)NC(=O)[C@@H](NC(=O)CNC(=O)[C@H](CCC(N)=O)NC(=O)[C@H](CO)NC(=O)[C@@H](N)Cc1c[nH]cn1)[C@@H](C)O)[C@@H](C)O)C(=O)N[C@@H](CC(=O)O)C(=O)N[C@@H](CO)C(=O)N[C@@H](CCCNC(=N)N)C(=O)N[C@@H](CCCNC(=N)N)C(=O)N[C@@H](C)C(=O)N[C@@H](CCCNC(=N)N)C(=O)N[C@@H](CC(=O)O)C(=O)N[C@@H](Cc1ccccc1)C(=O)N[C@H](C(=O)N[C@@H](CCC(=O)O)C(=O)N[C@@H](Cc1c[nH]c2ccccc12)C(=O)N[C@@H](CC(C)C)C(=O)N[C@@H](CCC(=O)O)C(=O)N[C@@H](C)C(=O)NCC(=O)NCC(N)=O)C(C)C)C(=O)O
B5: g836 (peptide)
peptide: HSQGTFTSDYSKYK([γGlu-Palmitoyl])DSERARDFVEWLEAGG-NH2
modifications: N-terminus assumed
SMILES: CCCCCCCCCCCCCCCC(=O)N[C@@H](CCC(=O)NCCCC[C@H](NC(=O)[C@H](Cc1ccc(O)cc1)NC(=O)[C@H](CCCCN)NC(=O)[C@H](CO)NC(=O)[C@H](Cc1ccc(O)cc1)NC(=O)[C@H](CC(=O)O)NC(=O)[C@H](CO)NC(=O)[C@@H](NC(=O)[C@H](Cc1ccccc1)NC(=O)[C@@H](NC(=O)CNC(=O)[C@H](CCC(N)=O)NC(=O)[C@H](CO)NC(=O)[C@@H](N)Cc1c[nH]cn1)[C@@H](C)O)[C@@H](C)O)C(=O)N[C@@H](CC(=O)O)C(=O)N[C@@H](CO)C(=O)N[C@@H](CCC(=O)O)C(=O)N[C@@H](CCCNC(=N)N)C(=O)N[C@@H](C)C(=O)N[C@@H](CCCNC(=N)N)C(=O)N[C@@H](CC(=O)O)C(=O)N[C@@H](Cc1ccccc1)C(=O)N[C@H](C(=O)N[C@@H](CCC(=O)O)C(=O)N[C@@H](Cc1c[nH]c2ccccc12)C(=O)N[C@@H](CC(C)C)C(=O)N[C@@H](CCC(=O)O)C(=O)N[C@@H](C)C(=O)NCC(=O)NCC(N)=O)C(C)C)C(=O)O
B6: g781 (peptide)
peptide: HSQGTFTSDYSKYLDK([γGlu-Palmitoyl])RRARDFVAWLEAGG-NH2
modifications: N-terminus assumed
SMILES: CCCCCCCCCCCCCCCC(=O)N[C@@H](CCC(=O)NCCCC[C@H](NC(=O)[C@H](CC(=O)O)NC(=O)[C@H](CC(C)C)NC(=O)[C@H](Cc1ccc(O)cc1)NC(=O)[C@H](CCCCN)NC(=O)[C@H](CO)NC(=O)[C@H](Cc1ccc(O)cc1)NC(=O)[C@H](CC(=O)O)NC(=O)[C@H](CO)NC(=O)[C@@H](NC(=O)[C@H](Cc1ccccc1)NC(=O)[C@@H](NC(=O)CNC(=O)[C@H](CCC(N)=O)NC(=O)[C@H](CO)NC(=O)[C@@H](N)Cc1c[nH]cn1)[C@@H](C)O)[C@@H](C)O)C(=O)N[C@@H](CCCNC(=N)N)C(=O)N[C@@H](CCCNC(=N)N)C(=O)N[C@@H](C)C(=O)N[C@@H](CCCNC(=N)N)C(=O)N[C@@H](CC(=O)O)C(=O)N[C@@H](Cc1ccccc1)C(=O)N[C@H](C(=O)N[C@@H](C)C(=O)N[C@@H](Cc1c[nH]c2ccccc12)C(=O)N[C@@H](CC(C)C)C(=O)N[C@@H](CCC(=O)O)C(=O)N[C@@H](C)C(=O)NCC(=O)NCC(N)=O)C(C)C)C(=O)O
B7: g805 (peptide)
peptide: HSQGTFTSDYSKYK([γGlu-Palmitoyl])DSRRARDFVEWLEAGG-NH2
modifications: N-terminus assumed
SMILES: CCCCCCCCCCCCCCCC(=O)N[C@@H](CCC(=O)NCCCC[C@H](NC(=O)[C@H](Cc1ccc(O)cc1)NC(=O)[C@H](CCCCN)NC(=O)[C@H](CO)NC(=O)[C@H](Cc1ccc(O)cc1)NC(=O)[C@H](CC(=O)O)NC(=O)[C@H](CO)NC(=O)[C@@H](NC(=O)[C@H](Cc1ccccc1)NC(=O)[C@@H](NC(=O)CNC(=O)[C@H](CCC(N)=O)NC(=O)[C@H](CO)NC(=O)[C@@H](N)Cc1c[nH]cn1)[C@@H](C)O)[C@@H](C)O)C(=O)N[C@@H](CC(=O)O)C(=O)N[C@@H](CO)C(=O)N[C@@H](CCCNC(=N)N)C(=O)N[C@@H](CCCNC(=N)N)C(=O)N[C@@H](C)C(=O)N[C@@H](CCCNC(=N)N)C(=O)N[C@@H](CC(=O)O)C(=O)N[C@@H](Cc1ccccc1)C(=O)N[C@H](C(=O)N[C@@H](CCC(=O)O)C(=O)N[C@@H](Cc1c[nH]c2ccccc12)C(=O)N[C@@H](CC(C)C)C(=O)N[C@@H](CCC(=O)O)C(=O)N[C@@H](C)C(=O)NCC(=O)NCC(N)=O)C(C)C)C(=O)O

Each binder was assayed against human glucagon receptor (human, UniProt P47871 26-477) (assay: cell-based or functional assay).
Chain of human glucagon receptor (P47871 26-477): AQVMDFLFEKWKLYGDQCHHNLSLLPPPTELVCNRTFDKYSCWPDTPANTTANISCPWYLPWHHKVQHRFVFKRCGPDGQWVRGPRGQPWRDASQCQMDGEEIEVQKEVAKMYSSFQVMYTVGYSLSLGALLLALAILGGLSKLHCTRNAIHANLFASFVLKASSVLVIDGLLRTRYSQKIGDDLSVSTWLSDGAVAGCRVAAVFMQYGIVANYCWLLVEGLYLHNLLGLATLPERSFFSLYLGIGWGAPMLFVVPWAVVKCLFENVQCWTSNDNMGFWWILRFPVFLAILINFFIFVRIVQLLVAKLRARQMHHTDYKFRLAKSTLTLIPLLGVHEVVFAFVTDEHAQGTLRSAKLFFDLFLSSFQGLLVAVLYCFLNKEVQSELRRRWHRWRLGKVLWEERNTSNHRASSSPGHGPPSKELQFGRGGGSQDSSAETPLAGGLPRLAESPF

Row | Binder | cAMP EC50 (assay 1)
1 | B1 | 0.00219 nM
2 | B2 | 0.00195 nM
3 | B3 | 0.00168 nM
4 | B4 | 0.0104 nM
5 | B5 | 0.0155 nM
6 | B6 | 0.00286 nM
7 | B7 | 0.00144 nM

What follows are binders tested against human GLP-1 receptor (human, UniProt P43220 24-463) (assay: cell-based or functional assay).
Chain of human GLP-1 receptor (P43220 24-463): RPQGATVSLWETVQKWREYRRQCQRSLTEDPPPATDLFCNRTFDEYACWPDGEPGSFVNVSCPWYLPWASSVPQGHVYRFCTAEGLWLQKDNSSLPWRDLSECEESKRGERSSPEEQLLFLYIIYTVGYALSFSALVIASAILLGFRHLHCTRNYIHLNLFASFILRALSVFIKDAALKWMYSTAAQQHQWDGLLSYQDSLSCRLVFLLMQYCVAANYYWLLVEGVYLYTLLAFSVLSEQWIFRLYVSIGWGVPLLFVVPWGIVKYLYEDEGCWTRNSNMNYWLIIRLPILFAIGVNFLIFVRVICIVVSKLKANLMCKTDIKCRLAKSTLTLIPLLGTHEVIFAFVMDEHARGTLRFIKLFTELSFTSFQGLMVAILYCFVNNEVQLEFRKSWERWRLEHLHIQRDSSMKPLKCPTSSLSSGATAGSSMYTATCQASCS

Row | Binder | cAMP EC50 (assay 1)
8 | B1 | 0.0212 nM
9 | B2 | 0.0715 nM
10 | B3 | 0.0251 nM
11 | B4 | 0.0863 nM
12 | B5 | 0.124 nM
13 | B6 | 0.104 nM
14 | B7 | 0.0228 nM

Each binder was assayed against T1, human glucose-dependent insulinotropic peptide (gastric inhibitory polypeptide) receptor (human) (assay: cell-based or functional assay).

Row | Binder | cAMP EC50 (assay 1)
15 | B1 | 89.6 nM
16 | B2 | 99.7 nM
17 | B3 | 15.2 nM
18 | B4 | 79 nM
19 | B5 | 100 nM
20 | B6 | 402 nM
21 | B7 | 99.7 nM
